The text below walks through data of patent publication US20060110396A1.

The assay has as its target Human CDw52 (human) (UniProt P31358). The experiment in a line: cell-based or functional assay.

Take CAMPATH (antibody): the 51Cr release assay, lysis (apoptosis) of macrophage-cell line THP-1 after 18 h was found to be 70% and the 51Cr release assay, lysis (apoptosis) of macrophage-cell line U-937 after 18 h is 55%.
